In FireProtDB (doi:10.1093/protein/7.9.1089):
“And” between values parts separate entries of the source, which are not always exact repeats. Identical values can stand only once.

B1: Ribonuclease, P00648 (parent)
chain: MMKMEGIALKKRLSWISVCLLVLVSAAGMLFSTAAKTETSSHKAHTEAQVINTFDGVADYLQTYHKLPDNYITKSEAQALGWVASKGNLADVAPGKSIGGDIFSNREGKLPGKSGRTWREADINYTSGFRNSDRILYSSDWLIYKTTDHYQTFTKIR

Variants of: B1
Conditions: Bacillus amyloliquefaciens, pH 4.4, Thermal, DSC, Sodium acetate/Acetic acid 6.08 mM/13.92 mM/, reversible: yes (>95%), structure 1BNI, whole UniProt chain shown; for ddG of mutation (higher = less stable) / heat capacity change of unfolding / unfolding free energy: 25 °C

## MMKMEGIALKKRLSWISVCLLVLVSAAGMLFSTAAKTETSSHKAHTEAQVINTFDGVADYLQTYHKLPDNYITKSEAQALGWVASKGNLADVAPGKSIGGDIFSNREGKLPGKSGRTWREADINYTSGFRNSDRILYASDWLIYKTTDHYQTFTKIR [S138A]
  ddG of mutation (higher = less stable): 1.38 kcal/mol and 1.16 kcal/mol
  heat capacity change of unfolding: 1.6 kcal/mol/K
  unfolding free energy: 7.31 kcal/mol and 7.53 kcal/mol
  Tm: 46.7 °C
  change of melting temperature, mutant - wild type (higher = more stable): -4.81 °C and -4.8 °C
  unfolding enthalpy (calorimetric): 126 kcal/mol and 129 kcal/mol
  unfolding enthalpy (van 't Hoff): 116 kcal/mol and 115 kcal/mol

## MMKMEGIALKKRLSWISVCLLVLVSAAGMLFSTAAKTETSSHKAHTEAQVINTFDGVADYLQTYHKLPDNYITKSEAQALGWVASKGNLADVAPGKSIGGNIFSNREGKLPGKSGRTWREADINYTSGFRNSDRILYSSDWLIYKTTDHYQTFTKIR [D101N]
  ddG of mutation (higher = less stable): 2.46 kcal/mol and 2.66 kcal/mol
  heat capacity change of unfolding: 1.6 kcal/mol/K
  unfolding free energy: 6.2 kcal/mol and 6 kcal/mol
  Tm: 44.6 °C and 44.1 °C
  change of melting temperature, mutant - wild type (higher = more stable): -7.06 °C and -7.49 °C
  unfolding enthalpy (calorimetric): 117 kcal/mol and 115 kcal/mol
  unfolding enthalpy (van 't Hoff): 113 kcal/mol and 116 kcal/mol

## MMKMEGIALKKRLSWISVCLLVLVSAAGMLFSTAAKTETSSHKAHTEAQVINTFAGVADYLQTYHKLPDNYITKSEAQALGWVASKGNLADVAPGKSIGGDIFSNREGKLPGKSGRTWREADINYTSGFRNSDRILYSSDWLIYKTTDHYQTFTKIR [D55A]
  ddG of mutation (higher = less stable): 0.69 kcal/mol
  heat capacity change of unfolding: 1.6 kcal/mol/K
  unfolding free energy: 7.97 kcal/mol
  Tm: 49.7 °C
  change of melting temperature, mutant - wild type (higher = more stable): -1.91 °C
  unfolding enthalpy (calorimetric): 124 kcal/mol
  unfolding enthalpy (van 't Hoff): 127 kcal/mol

## MMKMEGIALKKRLSWISVCLLVLVSAAGMLFSTAAKTETSSHKAHTEAQVINTFDGVADYLQTYHKLPDNYITKSEAQALGWVASKGNLADVAPGKSVGGDIFSNREGKLPGKSGRTWREADINYTSGFRNSDRILYSSDWLIYKTTDHYQTFTKIR [I98V]
  ddG of mutation (higher = less stable): 1.86 kcal/mol
  heat capacity change of unfolding: 1.6 kcal/mol/K
  unfolding free energy: 6.83 kcal/mol
  Tm: 47 °C
  change of melting temperature, mutant - wild type (higher = more stable): -4.53 °C
  unfolding enthalpy (calorimetric): 118 kcal/mol
  unfolding enthalpy (van 't Hoff): 114 kcal/mol

## MMKMEGIALKKRLSWISVCLLVLVSAAGMLFSTAAKTETSSHKAHTEAQVINTFDGVADYLQTYHKLPDNYITKSEAQALGWVASKGNLADVAPGKSIGGDIFSNREGKLPGKSGRTWREADINYTSGFRNSDRVLYSSDWLIYKTTDHYQTFTKIR [I135V]
  ddG of mutation (higher = less stable): 1.47 kcal/mol
  heat capacity change of unfolding: 1.6 kcal/mol/K
  unfolding free energy: 7.22 kcal/mol
  Tm: 48.1 °C
  change of melting temperature, mutant - wild type (higher = more stable): -3.37 °C
  unfolding enthalpy (calorimetric): 119 kcal/mol
  unfolding enthalpy (van 't Hoff): 125 kcal/mol

## MMKMEGIALKKRLSWISVCLLVLVSAAGMLFSTAAKTETSSHKAHTEAQVINTFDGVADYLQTYHKLPDNYITKSEAQALGWVASKGNLADVAPGKSIGGDIFSNREGKLPGKSGRTWREADINYTSGFRNSDRILYSSDWLVYKTTDHYQTFTKIR [I143V]
  ddG of mutation (higher = less stable): 1.18 kcal/mol and 1.17 kcal/mol
  heat capacity change of unfolding: 1.6 kcal/mol/K
  unfolding free energy: 7.51 kcal/mol and 7.52 kcal/mol
  Tm: 49.2 °C
  change of melting temperature, mutant - wild type (higher = more stable): -2.29 °C and -2.3 °C
  unfolding enthalpy (calorimetric): 120 kcal/mol and 112 kcal/mol
  unfolding enthalpy (van 't Hoff): 125 kcal/mol and 123 kcal/mol

## MMKMEGIALKKRLSWISVCLLVLVSAAGMLFSTAAKTETSSHKAHTEAQVINTFDGVADYLQTYHKLPMNYITKSEAQALGWVASKGNLADVAPGKSIGGDIFSNREGKLPGKSGRTWREADINYTSGFRNSDRILYSSDWLIYKTTDHYQTFTKIR [D69M]
  ddG of mutation (higher = less stable): 0.27 kcal/mol
  heat capacity change of unfolding: 1.6 kcal/mol/K
  unfolding free energy: 8.39 kcal/mol
  Tm: 50.1 °C
  change of melting temperature, mutant - wild type (higher = more stable): -1.57 °C
  unfolding enthalpy (calorimetric): 129 kcal/mol
  unfolding enthalpy (van 't Hoff): 128 kcal/mol

## MMKMEGIALKKRLSWISVCLLVLVSAAGMLFSTAAKTETSSHKAHTEAQVINTFDGVADYLQTYHKLPDNYITKSEAQALGWVASKGNLADVAPGKSIGGDIFSNREGKLPGKSGMTWREADINYTSGFRNSDRILYSSDWLIYKTTDHYQTFTKIR [R116M]
  ddG of mutation (higher = less stable): 2.86 kcal/mol
  heat capacity change of unfolding: 1.6 kcal/mol/K
  unfolding free energy: 5.8 kcal/mol
  Tm: 45.9 °C
  change of melting temperature, mutant - wild type (higher = more stable): -5.77 °C
  unfolding enthalpy (calorimetric): 106 kcal/mol
  unfolding enthalpy (van 't Hoff): 118 kcal/mol

## MMKMEGIALKKRLSWISVCLLVLVSAAGMLFSTAAKTETSSHKAHTEAQVINTFDGVADYLQRYHKLPDNYITKSEAQALGWVASKGNLADVAPGKSIGGDIFSNREGKLPGKSGRTWREADINYTSGFRNSDRILYSSDWLIYKTTDHYQTFTKIR [T63R]
  ddG of mutation (higher = less stable): -0.2 kcal/mol
  heat capacity change of unfolding: 1.6 kcal/mol/K
  unfolding free energy: 8.86 kcal/mol
  Tm: 53 °C
  change of melting temperature, mutant - wild type (higher = more stable): 1.33 °C
  unfolding enthalpy (calorimetric): 126 kcal/mol
  unfolding enthalpy (van 't Hoff): 130 kcal/mol

## MMKMEGIALKKRLSWISVCLLVLVSAAGMLFSTAAKTETSSHKAHTEAQVINTFDGVADYLQTYHKLPDNYIGKSEAQALGWVASKGNLADVAPGKSIGGDIFSNREGKLPGKSGRTWREADINYTSGFRNSDRILYSSDWLIYKTTDHYQTFTKIR [T73G]
  ddG of mutation (higher = less stable): 2.08 kcal/mol
  heat capacity change of unfolding: 1.6 kcal/mol/K
  unfolding free energy: 6.58 kcal/mol
  Tm: 47.6 °C
  change of melting temperature, mutant - wild type (higher = more stable): -4.06 °C
  unfolding enthalpy (calorimetric): 112 kcal/mol
  unfolding enthalpy (van 't Hoff): 118 kcal/mol

## MMKMEGIALKKRLSWISVCLLVLVSAAGMLFSTAAKTETSSHKAHTEAQVINTFDGVADYLQTYHKLPDNYITKSEAQALGWVASKGNLADVAPGKSIGGDIFSNREGKLPGKSGRTWREADINYTSGFRNSDRILYSADWLIYKTTDHYQTFTKIR [S139A]
  ddG of mutation (higher = less stable): 2.83 kcal/mol
  heat capacity change of unfolding: 1.6 kcal/mol/K
  unfolding free energy: 5.83 kcal/mol
  Tm: 44.5 °C
  change of melting temperature, mutant - wild type (higher = more stable): -7.13 °C
  unfolding enthalpy (calorimetric): 111 kcal/mol
  unfolding enthalpy (van 't Hoff): 110 kcal/mol

## MMKMEGIALKKRLSWISVCLLVLVSAAGMLFSTAAKTETSSHKAHTEAQVINTFDGVAGYLQTYHKLPDNYITKSEAQALGWVASKGNLADVAPGKSIGGDIFSNREGKLPGKSGRTWREADINYTSGFRNSDRILYSSDWLIYKTTDHYQTFTKIR [D59G]
  ddG of mutation (higher = less stable): 0.78 kcal/mol
  heat capacity change of unfolding: 1.6 kcal/mol/K
  unfolding free energy: 7.88 kcal/mol
  Tm: 49.7 °C
  change of melting temperature, mutant - wild type (higher = more stable): -1.95 °C
  unfolding enthalpy (calorimetric): 123 kcal/mol
  unfolding enthalpy (van 't Hoff): 124 kcal/mol

## MMKMEGIALKKRLSWISVCLLVLVSAAGMLFSTAAKTETSSHKAHTEAQVINTFDGVADYLQTYHKLPDNYITKSEAQALGWVASKGNLADVAPGKSIGGDIFSNREGKLPGKSGRTWREADINYTSGFQNSDRILYSSDWLIYKTTDHYQTFTKIR [R130Q]
  ddG of mutation (higher = less stable): 1.58 kcal/mol
  heat capacity change of unfolding: 1.6 kcal/mol/K
  unfolding free energy: 7.08 kcal/mol
  Tm: 48.3 °C
  change of melting temperature, mutant - wild type (higher = more stable): -3.29 °C
  unfolding enthalpy (calorimetric): 117 kcal/mol
  unfolding enthalpy (van 't Hoff): 122 kcal/mol
